Measurements: PMC7367873, “Dissecting the sequence determinants for dephosphorylation by the catalytic subunits of phosphatases PP1 and PP2A” (Nature Communications, 2020)
Blank lines part the entries; values can stand above or below the molecule they belong to.

Legend:
[1] = test system: GFP-14-3-3β; experiment: GFP-14-3-3β co-IP with LC-MS/MS, untreated GFP-14-3-3β versus GFP control (14-3-3 interactome); assay type: binding, human; settings: GFP-14-3-3β co-IP LC-MS/MS; untreated vs GFP; student's t-test; label-free quantification, 3 replicates each
[2] = test system: GFP-14-3-3β and its binding proteins; experiment: GFP-14-3-3β co-IP with LC-MS/MS label-free quantification, untreated versus PP1c-treated; design: species or system human; settings: GFP-14-3-3β co-IP LC-MS/MS; PP1 vs untreated; student's t-test; label-free quantification, 3 replicates each

Difference (log2), PP1 vs untreated [2]: -0.5359 log2
B1: KANK2 (protein, UniProt Q63ZY3 1-851, looked up)
KN motif and ankyrin repeat …: MAQVLHVPAPFPGTPGPASPPAFPAKDPDPPYSVETPYGYRLDLDFLKYVDDIEKGHTLRRVAVQRRPRLSSLPRGPGSWWTSTESLCSNASGDSRHSAYSYCGRGFYPQYGALETRGGFNPRVERTLLDARRRLEDQAATPTGLGSLTPSAAGSTASLVGVGLPPPTPRSSGLSTPVPPSAGHLAHVREQMAGALRKLRQLEEQVKLIPVLQVKLSVLQEEKRQLTVQLKSQKFLGHPTAGRGRSELCLDLPDPPEDPVALETRSVGTWVRERDLGMPDGEAALAAKVAVLETQLKKALQELQAAQARQADPQPQAWPPPDSPVRVDTVRVVEGPREVEVVASTAAGAPAQRAQSLEPYGTGLRALAMPGRPESPPVFRSQEVVETMCPVPAAATSNVHMVKKISITERSCDGAAGLPEVPAESSSSPPGSEVASLTQPEKSTGRVPTQEPTHREPTRQAASQESEEAGGTGGPPAGVRSIMKRKEEVADPTAHRRSLQFVGVNGGYESSSEDSSTAENISDNDSTENEAPEPRERVPSVAEAPQLRPAGTAAAKTSRQECQLSRESQHIPTAEGASGSNTEEEIRMELSPDLISACLALEKYLDNPNALTERELKVAYTTVLQEWLRLACRSDAHPELVRRHLVTFRAMSARLLDYVVNIADSNGNTALHYSVSHANFPVVQQLLDSGVCKVDKQNRAGYSPIMLTALATLKTQDDIETVLQLFRLGNINAKASQAGQTALMLAVSHGRVDVVKALLACEADVNVQDDDGSTALMCACEHGHKEIAGLLLAVPSCDISLTDRDGSTALMVALDAGQSEIASMLYSRMNIKCSFAPMSDDESPTSSSAEE
Difference (log2), untreated vs GFP [1]: 1.477 log2

Difference (log2), PP1 vs untreated [2]: -0.5387 log2
B2: CCDC47 (protein, UniProt Q96A33 21-483, looked up)
PAT complex subunit CCDC47: KFDDFEDEEDIVEYDDNDFAEFEDVMEDSVTESPQRVIITEDDEDETTVELEGQDENQEGDFEDADTQEGDTESEPYDDEEFEGYEDKPDTSSSKNKDPITIVDVPAHLQNSWESYYLEILMVTGLLAYIMNYIIGKNKNSRLAQAWFNTHRELLESNFTLVGDDGTNKEATSTGKLNQENEHIYNLWCSGRVCCEGMLIQLRFLKRQDLLNVLARMMRPVSDQVQIKVTMNDEDMDTYVFAVGTRKALVRLQKEMQDLSEFCSDKPKSGAKYGLPDSLAILSEMGEVTDGMMDTKMVHFLTHYADKIESVHFSDQFSGPKIMQEEGQPLKLPDTKRTLLFTFNVPGSGNTYPKDMEALLPLMNMVIYSIDKAKKFRLNREGKQKADKNRARVEENFLKLTHVQRQEAAQSRREEKKRAEKERIMNEEDPEKQRRLEEAALRREQKKLEKKQMKMKQIKVKAM
Difference (log2), untreated vs GFP [1]: 1.192 log2

Difference (log2), PP1 vs untreated [2]: -0.541 log2
B3: FARSA (protein, UniProt Q9Y285 2-508, looked up)
Phenylalanine--tRNA ligase …: ADGQVAELLLRRLEASDGGLDSAELAAELGMEHQAVVGAVKSLQALGEVIEAELRSTKHWELTAEGEEIAREGSHEARVFRSIPPEGLAQSELMRLPSGKVGFSKAMSNKWIRVDKSAADGPRVFRVVDSMEDEVQRRLQLVRGGQAEKLGEKERSELRKRKLLAEVTLKTYWVSKGSAFSTSISKQETELSPEMISSGSWRDRPFKPYNFLAHGVLPDSGHLHPLLKVRSQFRQIFLEMGFTEMPTDNFIESSFWNFDALFQPQQHPARDQHDTFFLRDPAEALQLPMDYVQRVKRTHSQGGYGSQGYKYNWKLDEARKNLLRTHTTSASARALYRLAQKKPFTPVKYFSIDRVFRNETLDATHLAEFHQIEGVVADHGLTLGHLMGVLREFFTKLGITQLRFKPAYNPYTEPSMEVFSYHQGLKKWVEVGNSGVFRPEMLLPMGLPENVSVIAWGLSLERPTMIKYGINNIRELVGHKVNLQMVYDSPLCRLDAEPRPPPTQEAA
Difference (log2), untreated vs GFP [1]: 1.078 log2
